Results taken from US12545899B2, “Luciferase enzymes for use with thermostable luciferins in bioluminescent assays” (Promega Corporation, priority 2018, dated 2026).
Positions count from the first letter of the chain named. In names and notes the source's numbering stands.

B1: MK0110: SEQ ID NO: 77; H244W (protein)
chain: MADKNILYGPEPFYPLEDGTAGEQMFDALSRYAAIPGCIALTNAHTKENVLYEEFLKLSCRLAESFKKYGLKQNDTIAVCSENSLQFFLPVIASLYLGIIVAPVNDKYVERELIHSLGIVKPRIVFCSKNTFQKVLNVKSKLKSIETIIILDLNEDLGGYQCLNNFISQNSDSNLDVKKFKPYSFNRDDQVASIMFSSGTTGLPKGVMLTHKNIVARFSIAKDPTFGDAINPTSAILTVIPFHWGFGMMTTLGYFTCGFRVVLMHTFEEKLFLQSLQDYKVESTLLVPTLMAFLAKSALVEKYDFPHLKEIASGGAPLSKEIGEMVKKRFKLNFVRQGYGLTEATSAVLITPKGDAKPGSTGKIVPLHAVKVVDPTTGKILGPNEPGELYFKGPMKMKGYYNNEEATKAIIDNDGWLRSGDIAYYDNDGHFYIVDRLKSLIKYKGYQVAPAEIEGILLQHPYIVDAGVTGIPDEAAGELPAAGVVVQTGKYLNEQIVQDYVASQVSTAKWLRGGVKFLDEIPKGSTGKIDRKVLRQMLEKHTNGHHHHHHHH
B2: MK0124: SEQ ID NO: 91; H244W+T344M+I396K+S193A+N228D+L305F+S306P+I109V (protein)
chain: B1 chain with S193A, A344I
B3: MK0115: SEQ ID NO: 82; I396K (protein)
chain: B1 chain with S193A, K396I
B4: MK0125: SEQ ID NO: 92; H244W+T344A+I396L+S193A+N228D+L305F+S306P+I109V (protein)
chain: B1 chain with S193A, A316W, A344I
B5: MK0121: SEQ ID NO: 88; H244W+T344A+I396K+S193A+N228D+L305F+I109V (protein)
chain: B1 chain with S193A, A316W
B6: MK0109: SEQ ID NO: 76; S193A (protein)
chain: B1 chain with V109I, S193A
B7: MK0113: SEQ ID NO: 80; T344A (protein)
chain: B1 chain with S193A, P306S
B8: MK0116: SEQ ID NO: 83; I396L (protein)
chain: B1 chain with S193A, D228N
B9: MK0123: SEQ ID NO: 90; H244W+T344A+S193A+N228D+L305F+S306P+I109V (protein)
chain: B1 chain with S193A, T342S
B10: MK0108: SEQ ID NO: 75; I109V (protein)
chain: B1 chain with V109I, D228N, W244H, F305L, P306S, A344T, K396L
B11: MK0111: SEQ ID NO: 78; L305F (protein)
chain: B1 chain with S193A, W244H
B12: MK0112: SEQ ID NO: 79; S306P (protein)
chain: B1 chain with S193A, F305L
B13: MK0120: SEQ ID NO: 87; H244W+T344A+I396K+S193A+N228D+S306P+I109V (protein)
chain: B1 chain with S193A, A316M
B14: MK0127: SEQ ID NO: 93; H244W+T344A+I396K+S193A+L305F+S306P+I109V (protein)
chain: B1 chain with K107N, S193A, T289S
B15: MK0114: SEQ ID NO: 81; T344M (protein)
chain: B1 chain with S193A, A344T
B16: MK0118: SEQ ID NO: 85; H244W+T344A+I396K+N228D+L305F+S306P+I109V (protein)
chain: B1 chain with S193A
B17: MK0119: SEQ ID NO: 86; T344A+I396K+S193A+N228D+L305F+S306P+I109V (protein)
chain: B1 chain with S193A, V348I
B18: MK0122: SEQ ID NO: 89; H244W+I396K+S193A+N228D+L305F+S306P+I109V (protein)
chain: B1 chain with S193A, Y339M
B19: MK0117: SEQ ID NO: 84; H244W+T344A+I396K+S193A+N228D+L305F+S306P (protein)
chain: B1 chain with S193A
B20: MK0158: SEQ ID NO: 123; H244W+S193A+N228D+L305F+S306P+I109V+C38R+F55I+Y108F+A316W+Y339M+T342S+V348I+C257R+T284A+S313T+K353R+D435G (protein)
chain: MADKNILYGPEPFYPLEDGTAGEQMFDALSRYAAIPGRIALTNAHTKENVLYEEILKLSCRLAESFKKYGLKQNDTIAVCSENSLQFFLPVIASLYLGIIVAPVNDKFVERELIHSLGIVKPRIVFCSKNTFQKVLNVKSKLKSIETIIILDLNEDLGGYQCLNNFISQNSDSNLDVKKFKPYSFNRDDQVAAIMFSSGTTGLPKGVMLTHKNIVARFSIAKDPTFGDAINPTSAILTVIPFHWGFGMMTTLGYFTRGFRVVLMHTFEEKLFLQSLQDYKVESTLLVPSLMAFLAKSALVEKYDFPHLKEIATGGWPLSKEIGEMVKKRFKLNFVRQGMGLSETTSAILITPKGDAKPGSTGKIVPLHAVKVVDPTTGKILGPNEPGELYFKGPMIMKGYYNNEEATKAIIDNDGWLRSGDIAYYDNDGHFYIVGRRKSLIKYKGYQVAPAEIEGILLQHPYIVDAGVTGIPDEAAGELPAAGVVVQTGKYLNEQIVQDYVASQVSTAKRLRGGVKFLDEIPKGSTGKIDRKVLRQMLEKHTNGHHHHHHHH
B21: MK0159: SEQ ID NO: 124; H244W+S193A+N228D+L305F+S306P+I109V+C38R+F55I+Y108F+A316W+Y339M+T342S+V348I+T284A+T289S+S313T+W510R (protein)
chain: B20 chain with T284A, K353R

Assays:
[1] = Differential scanning fluorimetry (DSF) analysis; format: physicochemical; details: Table 9A
Summary of the method: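 Enzymes mixed with Sypro Orange at 5× final, heated 30–95° C at 1° C per minute with fluorescence read every 60 s. Storage buffer 50 mM HEPES pH 7.5, 100 mM NaCl, 2 mM EDTA, or for luciferase variants 20 mM HEPES pH 7.5, 200 mM NaCl, 1 mM EDTA; per-minute fluorescence change plotted against temperature.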

[2] = Effect of individual mutations: maximum luminescence with CS0333; format: biochemical; details: for Vmax (RLU) with CS0333: 10 fM to 1 mM CS0333, Detection Reagent (DR) buffer
Procedure: Experiments were also conducted to evaluate and compare the activities of the various luciferase enzyme variants, including the effects of individual amino acid mutations. To evaluate the effect of individual mutations on luciferase enzyme variants, 0.005 mg/ml luciferase enzyme variant was mixed with 1 mM ATP+10 fM to 1 mM CS0333 in Detection Reagent (DR) buffer.

[3] = Kinetic analysis of thermostable variants with CS0280 (Tables 13, 14); format: biochemical; details: 2 mM ATP
[4] = Kinetic analysis of thermostable variants with D/L-luciferin (Tables 13, 14); format: biochemical; details: 2 mM ATP
[5] = Luminescence at 1 mM CS0280 (Table 11); format: biochemical; details: 1 mM substrate, 1 mM ATP
Excerpt: (§1) Tables 10 and 11 include representative results of kinetic analysis of the thermostable variants with D/L luciferin, CS0333, and CS0280. […] MK0135 and MK0137 have amino acid substitutions that improve thermostability relative to MK0133 and MK0134, respectively, while retaining activity on the luciferin analogs CS0333 and CS0280.

[6] = Kinetic analysis of thermostable variants with CS0333 (Tables 13, 14); format: biochemical; details: 2 mM ATP
[7] = Luminescence at 1 mM CS0333 (Table 11); format: biochemical; details: 1 mM substrate, 1 mM ATP
Excerpt: as §1

[8] = Luminescence at 1 mM D/L-luciferin (Table 11); format: biochemical; details: 1 mM substrate, 1 mM ATP
Excerpt: as §1

| Molecule | DSF Tm (° C.) [1] [°C] | Vmax (RLU) with CS0333 [2] | also measured |
| --- | --- | --- | --- |
| B1 | 80 | 9,534 RLU | improvement of maximum luminescence with CS0333 above background ([2]; single point mutation introduced into the Ppe variant, DR buffer): ~5 fold |
| B2 | 70 | 4,270,690 RLU | – |
| B3 | 67 | 2,120 RLU | – |
| B4 | 69 | 2,625,480 RLU | – |
| B5 | 62 | 2,643,970 RLU | – |
| B6 | 77 | 1,114 RLU | – |
| B7 | 71 | 1,948 RLU | – |
| B8 | 73 | 7,428 RLU | – |
| B9 | 72 | 2,841,640 RLU | – |
| B10 | 78 | 1,300 RLU | – |
| B11 | 79 | 1,166 RLU | – |
| B12 | 80 | 1,232 RLU | – |
| B13 | 62 | 3,192,740 RLU | – |
| B14 | 66 | 2,293,340 RLU | – |
| B15 | 70 | 1,030 RLU | – |
| B16 | 63 | 3,455,610 RLU | – |
| B17 | 64 | 62,167 RLU | – |
| B18 | 69 | 962,171 RLU | – |
| B19 | 63 | 3,820,310 RLU | – |
| B20 | – | – | Km ([3]; BrightGlo Buffer): 2.94 µM; Vmax (RLU) ([3]; BrightGlo Buffer): 426,927 RLU; Km ([3]; Detection Reagent Buffer): 568 µM; Vmax (RLU) ([3]; Detection Reagent Buffer): 39,068 RLU; Km ([4]; BrightGlo Buffer): 0.109 µM; Vmax (RLU) ([4]; BrightGlo Buffer): 2,509,334 RLU; Km ([4]; Detection Reagent Buffer): 0.451 µM; Vmax (RLU) ([4]; Detection Reagent Buffer): 365,701 RLU; Vmax (RLU) CS0280 BrightGlo Buffer [5]: 1,523,240 RLU; Vmax (RLU) CS0280 Detection Reagent Buffer [5]: 41,712 RLU; Km ([6]; BrightGlo Buffer): 14.6 µM; Vmax (RLU) ([6]; BrightGlo Buffer): 1,546,728 RLU; Km ([6]; Detection Reagent Buffer): 20.8 µM; Vmax (RLU) ([6]; Detection Reagent Buffer): 524,381 RLU; Vmax (RLU) CS0333 BrightGlo Buffer [7]: 4,043,790 RLU; Vmax (RLU) CS0333 Detection Reagent Buffer [7]: 1,508,370 RLU; Vmax (RLU) D/L-luciferin BrightGlo Buffer [8]: 3,261,120 RLU; Vmax (RLU) D/L-luciferin Detection Reagent Buffer [8]: 1,086,510 RLU |
| B21 | – | – | Km ([3]; BrightGlo Buffer): 2.78 µM; Vmax (RLU) ([3]; BrightGlo Buffer): 439,625 RLU; Km ([3]; Detection Reagent Buffer): 602 µM; Vmax (RLU) ([3]; Detection Reagent Buffer): 40,925 RLU; Km ([4]; BrightGlo Buffer): 0.107 µM; Vmax (RLU) ([4]; BrightGlo Buffer): 2,363,790 RLU; Km ([4]; Detection Reagent Buffer): 0.444 µM; Vmax (RLU) ([4]; Detection Reagent Buffer): 369,822 RLU; Vmax (RLU) CS0280 BrightGlo Buffer [5]: 2,094,150 RLU; Vmax (RLU) CS0280 Detection Reagent Buffer [5]: 110,050 RLU; Km ([6]; BrightGlo Buffer): 14.7 µM; Vmax (RLU) ([6]; BrightGlo Buffer): 1,528,708 RLU; Km ([6]; Detection Reagent Buffer): 20.9 µM; Vmax (RLU) ([6]; Detection Reagent Buffer): 523,610 RLU; Vmax (RLU) CS0333 BrightGlo Buffer [7]: 6,850,630 RLU; Vmax (RLU) CS0333 Detection Reagent Buffer [7]: 4,630,740 RLU; Vmax (RLU) D/L-luciferin BrightGlo Buffer [8]: 688,326 RLU; Vmax (RLU) D/L-luciferin Detection Reagent Buffer [8]: 106,195 RLU |
